According to publication PMC7367873, “Dissecting the sequence determinants for dephosphorylation by the catalytic subunits of phosphatases PP1 and PP2A” (Nature Communications, 2020):
Values belong to the molecule of their own block, whether it stands above or below them.

Tests used:
[1] = test system: GFP-14-3-3β and its binding proteins; experiment: GFP-14-3-3β co-IP with LC-MS/MS label-free quantification, untreated versus PP1c-treated; design: species or system human; settings: pairwise comparison PP1 vs untreated, 3 replicates each
GFP-14-3-3β = GFP-14-3-3β co-IP with LC-MS/MS, untreated GFP-14-3-3β versus GFP control (14-3-3 interactome); type: binding, human; settings: 3 replicates each
[2] = student's t-test, LC-MS/MS label-free quantification
[3] = pairwise comparison untreated GFP-14-3-3β vs GFP, student's t-test, LC-MS/MS label-free quantification
[4] = log2 difference, label-free quantification
[5] = log2 difference, pairwise comparison untreated vs GFP, label-free quantification

B1: FOXK1 (protein, UniProt P85037 2-733, looked up)
Forkhead box protein K1: AEVGEDSGARALLALRSAPCSPVLCAAAAAAAFPAAAPPPAPAQPQPPPGPPPPPPPPLPPGAIAGAGSSGGSSGVSGDSAVAGAAPALVAAAAASVRQSPGPALARLEGREFEFLMRQPSVTIGRNSSQGSVDLSMGLSSFISRRHLQLSFQEPHFYLRCLGKNGVFVDGAFQRRGAPALQLPKQCTFRFPSTAIKIQFTSLYHKEEAPASPLRPLYPQISPLKIHIPEPDLRSMVSPVPSPTGTISVPNSCPASPRGAGSSSYRFVQNVTSDLQLAAEFAAKAASEQQADTSGGDSPKDESKPPFSYAQLIVQAISSAQDRQLTLSGIYAHITKHYPYYRTADKGWQNSIRHNLSLNRYFIKVPRSQEEPGKGSFWRIDPASEAKLVEQAFRKRRQRGVSCFRTPFGPLSSRSAPASPTHPGLMSPRSGGLQTPECLSREGSPIPHDPEFGSKLASVPEYRYSQSAPGSPVSAQPVIMAVPPRPSSLVAKPVAYMPASIVTSQQPAGHAIHVVQQAPTVTMVRVVTTSANSANGYILTSQGAAGGSHDAAGAAVLDLGSEARGLEEKPTIAFATIPAAGGVIQTVASQMAPGVPGHTVTILQPATPVTLGQHHLPVRAVTQNGKHAVPTNSLAGNAYALTSPLQLLATQASSSAPVVVTRVCEVGPKEPAAAVAATATTTPATATTASASASSTGEPEVKRSRVEEPSGAVTTPAGVIAAAGPQGPGTGE
- Difference (log2), PP1 vs untreated [1, 2]: -2.312 log2
- Difference (log2), untreated vs GFP (GFP-14-3-3β; [3]): 5.634 log2

B5: DDX1 (protein, UniProt Q92499 1-740, looked up)
ATP-dependent RNA helicase …: MAAFSEMGVMPEIAQAVEEMDWLLPTDIQAESIPLILGGGDVLMAAETGSGKTGAFSIPVIQIVYETLKDQQEGKKGKTTIKTGASVLNKWQMNPYDRGSAFAIGSDGLCCQSREVKEWHGCRATKGLMKGKHYYEVSCHDQGLCRVGWSTMQASLDLGTDKFGFGFGGTGKKSHNKQFDNYGEEFTMHDTIGCYLDIDKGHVKFSKNGKDLGLAFEIPPHMKNQALFPACVLKNAELKFNFGEEEFKFPPKDGFVALSKAPDGYIVKSQHSGNAQVTQTKFLPNAPKALIVEPSRELAEQTLNNIKQFKKYIDNPKLRELLIIGGVAARDQLSVLENGVDIVVGTPGRLDDLVSTGKLNLSQVRFLVLDEADGLLSQGYSDFINRMHNQIPQVTSDGKRLQVIVCSATLHSFDVKKLSEKIMHFPTWVDLKGEDSVPDTVHHVVVPVNPKTDRLWERLGKSHIRTDDVHAKDNTRPGANSPEMWSEAIKILKGEYAVRAIKEHKMDQAIIFCRTKIDCDNLEQYFIQQGGGPDKKGHQFSCVCLHGDRKPHERKQNLERFKKGDVRFLICTDVAARGIDIHGVPYVINVTLPDEKQNYVHRIGRVGRAERMGLAISLVATEKEKVWYHVCSSRGKGCYNTRLKEDGGCTIWYNEMQLLSEIEEHLNCTISQVEPDIKVPVDEFDGKVTYGQKRAAGGGSYKGHVDILAPTVQELAALEKEAQTSFLHLGYLPNQLFRTF
- Difference (log2), PP1 vs untreated [1, 4]: 1.563
- Difference (log2), untreated vs GFP (GFP-14-3-3β; [5]): -0.009417

B6: RNPC3 (protein, UniProt Q96LT9 1-517, looked up)
RNA-binding region-containing …: MAAPEQPLAISRGCTSSSSLSPPRGDRTLLVRHLPAELTAEEKEDLLKYFGAQSVRVLSDKGRLKHTAFATFPNEKAAIKALTRLHQLKLLGHTLVVEFAKEQDRVHSPCPTSGSEKKKRSDDPVEDDKEKKELGYLTVENGIAPNHGLTFPLNSCLKYMYPPPSSTILANIVNALASVPKFYVQVLHLMNKMNLPTPFGPITARPPMYEDYMPLHAPLPPTSPQPPEEPPLPDEDEELSSEESEYESTDDEDRQRMNKLMELANLQPKRPKTIKQRHVRKKRKIKDMLNTPLCPSHSSLHPVLLPSDVFDQPQPVGNKRIEFHISTDMPAAFKKDLEKEQNCEEKNHDLPATEVDASNIGFGKIFPKPNLDITEEIKEDSDEMPSECISRRELEKGRISREEMETLSVFRSYEPGEPNCRIYVKNLAKHVQEKDLKYIFGRYVDFSSETQRIMFDIRLMKEGRMKGQAFIGLPNEKAAAKALKEANGYVLFGKPMVVQFARSARPKQDPKEGKRKC
- Difference (log2), PP1 vs untreated [1, 4]: 5.4303
- Difference (log2), untreated vs GFP (GFP-14-3-3β; [5]): -2.187

Further lines, with some results ahead:

- Difference (log2), PP1 vs untreated [1, 2]: -2.212 log2
B2: FGD6 (protein, UniProt Q6ZV73 1-1430, looked up)
FYVE, RhoGEF and PH …: MTSAAEIKKPPVAPKPKFVVANNKPAPPPIAPKPDIVISSVPQSTKKMKPAIAPKPKVLKTSPVREIGQSPSRKIMLNLEGHKQELAESTDNFNCKYEGNQSNDYISPMCSCSSECIHKLGHRENLCVKQLVLEPLEMNENLENSKIDETLTIKTRSKCDLYGEKAKNQGGVVLKASVLEEELKDALIHQMPPFISAQKHRPTDSPEMNGGCNSNGQFRIEFADLSPSPSSFEKVPDHHSCHLQLPSDECEHFETCQDDSEKSNNCFQSSELEALENGKRSTLISSDGVSKKSEVKDLGPLEIHLVPYTPKFPTPKPRKTRTARLLRQKCVDTPSESTEEPGNSDSSSSCLTENSLKINKISVLHQNVLCKQEQVDKMKLGNKSELNMESNSDAQDLVNSQKAMCNETTSFEKMAPSFDKDSNLSSDSTTVDGSSMSLAVDEGTGFIRCTVSMSLPKQLKLTCNEHLQSGRNLGVSAPQMQKESVIKEENSLRIVPKKPQRHSLPATGVLKKAASEELLEKSSYPSSEEKSSEKSLERNHLQHLCAQNRGVSSSFDMPKRASEKPVWKLPHPILPFSGNPEFLKSVTVSSNSEPSTALTKPRAKSLSAMDVEKCTKPCKDSTKKNSFKKLLSMKLSICFMKSDFQKFWSKSSQLGDTTTGHLSSGEQKGIESDWQGLLVGEEKRSKPIKAYSTENYSLESQKKRKKSRGQTSAANGLRAESLDDQMLSRESSSQAPYKSVTSLCAPEYENIRHYEEIPEYENLPFIMAIRKTQELEWQNSSSMEDADANVYEVEEPYEAPDGQLQLGPRHQHSSSGASQEEQNDLGLGDLPSDEEEIINSSDEDDVSSESSKGEPDPLEDKQDEDNGMKSKVHHIAKEIMSSEKVFVDVLKLLHIDFRDAVAHASRQLGKPVIEDRILNQILYYLPQLYELNRDLLKELEERMLHWTEQQRIADIFVKKGPYLKMYSTYIKEFDKNIALLDEQCKKNPGFAAVVREFEMSPRCANLALKHYLLKPVQRIPQYRLLLTDYLKNLIEDAGDYRDTQDALAVVIEVANHANDTMKQGDNFQKLMQIQYSLNGHHEIVQPGRVFLKEGILMKLSRKVMQPRMFFLFNDALLYTTPVQSGMYKLNNMLSLAGMKVRKPTQEAYQNELKIESVERSFILSASSATERDEWLEAISRAIEEYAKKRITFCPSRSLDEADSENKEEVSPLGSKAPIWIPDTRATMCMICTSEFTLTWRRHHCRACGKIVCQACSSNKYGLDYLKNQPARVCEHCFQELQKLDHQHSPRIGSPGNHKSPSSALSSVLHSIPSGRKQKKIPAALKEVSANTEDSSMSGYLYRSKGNKKPWKHFWFVIKNKVLYTYAASEDVAALESQPLLGFTVIQVKDENSESKVFQLLHKNMLFYVFKAEDAHSAQKWIEAFQEGTIL
- Difference (log2), untreated vs GFP (GFP-14-3-3β; [3]): 2.545 log2

- Difference (log2), PP1 vs untreated [1, 2]: -2.1937 log2
B3: HDAC4 (protein, UniProt P56524 1-1084, looked up)
Histone deacetylase 4: MSSQSHPDGLSGRDQPVELLNPARVNHMPSTVDVATALPLQVAPSAVPMDLRLDHQFSLPVAEPALREQQLQQELLALKQKQQIQRQILIAEFQRQHEQLSRQHEAQLHEHIKQQQEMLAMKHQQELLEHQRKLERHRQEQELEKQHREQKLQQLKNKEKGKESAVASTEVKMKLQEFVLNKKKALAHRNLNHCISSDPRYWYGKTQHSSLDQSSPPQSGVSTSYNHPVLGMYDAKDDFPLRKTASEPNLKLRSRLKQKVAERRSSPLLRRKDGPVVTALKKRPLDVTDSACSSAPGSGPSSPNNSSGSVSAENGIAPAVPSIPAETSLAHRLVAREGSAAPLPLYTSPSLPNITLGLPATGPSAGTAGQQDAERLTLPALQQRLSLFPGTHLTPYLSTSPLERDGGAAHSPLLQHMVLLEQPPAQAPLVTGLGALPLHAQSLVGADRVSPSIHKLRQHRPLGRTQSAPLPQNAQALQHLVIQQQHQQFLEKHKQQFQQQQLQMNKIIPKPSEPARQPESHPEETEEELREHQALLDEPYLDRLPGQKEAHAQAGVQVKQEPIESDEEEAEPPREVEPGQRQPSEQELLFRQQALLLEQQRIHQLRNYQASMEAAGIPVSFGGHRPLSRAQSSPASATFPVSVQEPPTKPRFTTGLVYDTLMLKHQCTCGSSSSHPEHAGRIQSIWSRLQETGLRGKCECIRGRKATLEELQTVHSEAHTLLYGTNPLNRQKLDSKKLLGSLASVFVRLPCGGVGVDSDTIWNEVHSAGAARLAVGCVVELVFKVATGELKNGFAVVRPPGHHAEESTPMGFCYFNSVAVAAKLLQQRLSVSKILIVDWDVHHGNGTQQAFYSDPSVLYMSLHRYDDGNFFPGSGAPDEVGTGPGVGFNVNMAFTGGLDPPMGDAEYLAAFRTVVMPIASEFAPDVVLVSSGFDAVEGHPTPLGGYNLSARCFGYLTKQLMGLAGGRIVLALEGGHDLTAICDASEACVSALLGNELDPLPEKVLQQRPNANAVRSMEKVMEIHSKYWRCLQRTTSTAGRSLIEAQTCENEEAETVTAMASLSVGVKPAEKRPDEEPMEEEPPL
- Difference (log2), untreated vs GFP (GFP-14-3-3β; [3]): 7.6192 log2

- Difference (log2), PP1 vs untreated [1, 2]: -2.17 log2
B4: CYFIP1 (protein, UniProt Q7L576 1-1253, looked up)
Cytoplasmic FMR1-interacting …: MAAQVTLEDALSNVDLLEELPLPDQQPCIEPPPSSLLYQPNFNTNFEDRNAFVTGIARYIEQATVHSSMNEMLEEGQEYAVMLYTWRSCSRAIPQVKCNEQPNRVEIYEKTVEVLEPEVTKLMNFMYFQRNAIERFCGEVRRLCHAERRKDFVSEAYLITLGKFINMFAVLDELKNMKCSVKNDHSAYKRAAQFLRKMADPQSIQESQNLSMFLANHNKITQSLQQQLEVISGYEELLADIVNLCVDYYENRMYLTPSEKHMLLKVMGFGLYLMDGSVSNIYKLDAKKRINLSKIDKYFKQLQVVPLFGDMQIELARYIKTSAHYEENKSRWTCTSSGSSPQYNICEQMIQIREDHMRFISELARYSNSEVVTGSGRQEAQKTDAEYRKLFDLALQGLQLLSQWSAHVMEVYSWKLVHPTDKYSNKDCPDSAEEYERATRYNYTSEEKFALVEVIAMIKGLQVLMGRMESVFNHAIRHTVYAALQDFSQVTLREPLRQAIKKKKNVIQSVLQAIRKTVCDWETGHEPFNDPALRGEKDPKSGFDIKVPRRAVGPSSTQLYMVRTMLESLIADKSGSKKTLRSSLEGPTILDIEKFHRESFFYTHLINFSETLQQCCDLSQLWFREFFLELTMGRRIQFPIEMSMPWILTDHILETKEASMMEYVLYSLDLYNDSAHYALTRFNKQFLYDEIEAEVNLCFDQFVYKLADQIFAYYKVMAGSLLLDKRLRSECKNQGATIHLPPSNRYETLLKQRHVQLLGRSIDLNRLITQRVSAAMYKSLELAIGRFESEDLTSIVELDGLLEINRMTHKLLSRYLTLDGFDAMFREANHNVSAPYGRITLHVFWELNYDFLPNYCYNGSTNRFVRTVLPFSQEFQRDKQPNAQPQYLHGSKALNLAYSSIYGSYRNFVGPPHFQVICRLLGYQGIAVVMEELLKVVKSLLQGTILQYVKTLMEVMPKICRLPRHEYGSPGILEFFHHQLKDIVEYAELKTVCFQNLREVGNAILFCLLIEQSLSLEEVCDLLHAAPFQNILPRVHVKEGERLDAKMKRLESKYAPLHLVPLIERLGTPQQIAIAREGDLLTKERLCCGLSMFEVILTRIRSFLDDPIWRGPLPSNGVMHVDECVEFHRLWSAMQFVYCIPVGTHEFTVEQCFGDGLHWAGCMIIVLLGQQRRFAVLDFCYHLLKVQKHDGKDEIIKNVPLKKMVERIRKFQILNDEIITILDKYLKSGDGEGTPVEHVRCFQPPIHQSLASS
- Difference (log2), untreated vs GFP (GFP-14-3-3β; [3]): 3.924 log2
